# T1: epithelial sodium channel (ENaC) (Xenopus laevis, UniProt P51167+P51169+P51171)
# T1 construct: expressed in transfected cells; host or cells: Xenopus laevis oocytes (co-expression with Sgk)
# T1 sequence (P51167 1-632): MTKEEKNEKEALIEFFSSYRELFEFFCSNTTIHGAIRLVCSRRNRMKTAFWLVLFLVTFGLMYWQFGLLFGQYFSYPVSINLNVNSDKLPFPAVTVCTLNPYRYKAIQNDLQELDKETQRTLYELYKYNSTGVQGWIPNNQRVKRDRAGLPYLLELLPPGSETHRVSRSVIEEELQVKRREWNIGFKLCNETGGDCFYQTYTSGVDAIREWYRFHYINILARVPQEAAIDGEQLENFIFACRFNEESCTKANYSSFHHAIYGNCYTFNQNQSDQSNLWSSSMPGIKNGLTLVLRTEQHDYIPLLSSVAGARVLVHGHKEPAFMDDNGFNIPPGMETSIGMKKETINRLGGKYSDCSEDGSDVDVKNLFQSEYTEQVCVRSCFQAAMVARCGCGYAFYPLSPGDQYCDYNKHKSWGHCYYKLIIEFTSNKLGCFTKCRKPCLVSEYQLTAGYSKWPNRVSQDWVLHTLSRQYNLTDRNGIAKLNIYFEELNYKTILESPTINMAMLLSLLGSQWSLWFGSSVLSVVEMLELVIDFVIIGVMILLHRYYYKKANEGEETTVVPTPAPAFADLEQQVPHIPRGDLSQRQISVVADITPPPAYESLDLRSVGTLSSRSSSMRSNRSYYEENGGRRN
# T1 sequence (P51169 1-647): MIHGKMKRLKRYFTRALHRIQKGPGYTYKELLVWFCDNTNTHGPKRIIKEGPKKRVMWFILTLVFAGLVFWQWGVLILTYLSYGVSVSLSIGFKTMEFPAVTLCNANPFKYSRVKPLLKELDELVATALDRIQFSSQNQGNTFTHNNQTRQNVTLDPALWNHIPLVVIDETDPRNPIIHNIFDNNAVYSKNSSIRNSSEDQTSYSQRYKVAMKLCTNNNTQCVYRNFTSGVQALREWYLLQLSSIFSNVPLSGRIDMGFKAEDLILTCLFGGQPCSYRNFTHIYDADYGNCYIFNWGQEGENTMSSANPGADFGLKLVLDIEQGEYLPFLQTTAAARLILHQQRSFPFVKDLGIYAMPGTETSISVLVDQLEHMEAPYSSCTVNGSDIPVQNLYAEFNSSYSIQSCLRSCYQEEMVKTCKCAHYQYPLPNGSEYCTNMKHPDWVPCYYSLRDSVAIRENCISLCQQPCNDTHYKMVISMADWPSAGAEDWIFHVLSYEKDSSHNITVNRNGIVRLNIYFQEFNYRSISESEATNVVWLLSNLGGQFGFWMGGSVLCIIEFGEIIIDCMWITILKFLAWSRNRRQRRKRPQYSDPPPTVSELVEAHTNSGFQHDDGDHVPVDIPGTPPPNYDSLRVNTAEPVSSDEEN
# T1 sequence (P51171 1-660): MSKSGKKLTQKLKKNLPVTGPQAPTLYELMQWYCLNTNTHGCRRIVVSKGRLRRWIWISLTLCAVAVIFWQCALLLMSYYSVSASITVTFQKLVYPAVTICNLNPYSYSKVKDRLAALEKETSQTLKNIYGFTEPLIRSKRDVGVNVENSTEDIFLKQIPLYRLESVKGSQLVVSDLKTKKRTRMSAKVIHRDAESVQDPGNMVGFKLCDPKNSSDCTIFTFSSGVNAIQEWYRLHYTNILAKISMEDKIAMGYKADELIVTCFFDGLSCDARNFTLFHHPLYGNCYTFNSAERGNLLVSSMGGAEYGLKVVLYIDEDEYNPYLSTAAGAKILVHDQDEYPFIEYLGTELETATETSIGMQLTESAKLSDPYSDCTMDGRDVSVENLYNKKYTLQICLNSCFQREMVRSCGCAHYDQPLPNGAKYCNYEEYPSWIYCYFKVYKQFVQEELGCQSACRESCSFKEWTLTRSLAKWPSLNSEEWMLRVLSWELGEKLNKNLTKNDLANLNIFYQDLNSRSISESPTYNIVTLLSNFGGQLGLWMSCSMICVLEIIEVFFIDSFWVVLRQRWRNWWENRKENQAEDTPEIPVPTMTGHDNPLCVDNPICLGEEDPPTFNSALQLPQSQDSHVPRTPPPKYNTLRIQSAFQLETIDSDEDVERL
# Tests used:
# Sgk = assay: In vitro peptide kinase assay (Sgktide, [32P]ATP) of immunoprecipitated HA-Sgk; type: biochemical; details: mutant forms of Sgk
# From the text: Sgk is a component of the PI3 kinase cascade and is directly activated by PDK1 mediated phosphorylation of threonine 256 in the activation loop. […] To develop this kinase assay, lysates from human embryo kidney 293 cells transfected to express wild type hemagglutinin (HA)-tagged Sgk (HA-Sgk) were isolated and the Sgk immunoprecipitated with HA antibodies was used to screen a synthetic peptide library for identifying potential Sgk substrates. The immunoprecipitates were extensively washed, and incubated with the peptide in the presence of [^32P]ATP in kinase buffer (Park et al 1999). Sgk phosphorylated several peptides, and the best substrate for Sgk was KKRNRRLSVA (SEQ ID NO:01), which is named Sgktide. […] This substrate specificity is generally similar to, but not identical, with the substrate specificity for Akt, which is a well characterized down stream component of the PI 3 kinase pathway.
# Cotransfection of PDK1 with Sgk caused a 6-fold activation of Sgk activity, whereas, the kinase-dead form of PDK1 had no effect. […] The Ser-78 in the amino terminal domain is a third phosphorylation site and expression of the S78G Sgk mutation ablates the presence of the slowest migrating form of phosphorylated Sgk in SDS polyacrylamide gels.
# [1] = target: T1, epithelial sodium channel (ENaC); assay: Epithelial sodium channel activity after co-expression in oocytes; type: cell-based
# From the text: Identification of Sgk-interacting proteins that may connect Sgk to the cellular stress response. Using the yeast two-hybrid genetic screening strategy discussed earlier, we also identified IF-1, which is a negative regulator of the mitochondrial F1 ATPase pump, as an Sgk-interacting protein. […] Furthermore, cell lysates containing endogenous Sgk induced in response to glucocorticoids, serum, hyperosmotic stress or UV radiation interacted specifically with the GST-IF1 fusion protein but not with GST alone, as assessed by anti-sgk immunoblotting. […] We disclose that in response to genotoxic or hormonal stress cues, high levels of Sgk protein are produced, which then binds to the IF1 ATPase inhibitor, thus activating the mitochondrial F1 ATPase. We have also shown that Sgk activates the epithelial sodium channel (ENaC) after their co-expression in Xenopus Laevis oocytes. […] These observations indicate that one function of Sgk is to regulate cell volume following osmotic stress of the cells. […] Intriguingly, the cytoplasmic domains of the ENaC beta subunit contain amino acid sequences surrounding a serine that indicate it is an endogenous substrate for Sgk. Previous studies have shown that both the beta and gamma subunits of EnaC are phosphorylated (Shimkets, R. A.,et al. 1998. Proc Natl Acad Sci USA 95:3301–5).
molecule,measurement,setting,value
"K127M: Sgk with lysine 127 in the ATP binding domain substituted with methionine; kinase dead (protein, UniProt O00141 1-431, looked up, variant K127M) Serine/threonine-protein …: MTVKTEAAKGTLTYSRMRGMVAILIAFMKQRRMGLNDFIQKIANNSYACKHPEVQSILKISQPQEPELMNANPSPPPSPSQQINLGPSSNPHAKPSDFHFLKVIGKGSFGKVLLARHKAEEVFYAVMVLQKKAILKKKEEKHIMSERNVLLKNVKHPFLVGLHFSFQTADKLYFVLDYINGGELFYHLQRERCFLEPRARFYAAEIASALGYLHSLNIVYRDLKPENILLDSQGHIVLTDFGLCKENIEHNSTTSTFCGTPEYLAPEVLHKQPYDRTVDWWCLGAVLYEMLYGLPPFYSRNTAEMYDNILNKPLQLKPNITNSARHLLEGLLQKDRTKRLGAKDDFMEIKSHVFFSLINWDDLINKKITPPFNPNVSGPNDLRHFDPEFTEEPVPNSIGKSPDSVLVTASVKEAAEAFLGFSYAPPTDSFL",kinase activity / activation of Sgk mutant,Sgk,kinase dead form of Sgk
same,basal ENaC activity,[1],inhibiting the basal EnaC activity

# Reference: patent US7087392B2, “Antiproliferative SgK reagents and methods” (The Regents of the University of California, priority 1999, dated 2006)
